B1: BMPRII extracellular domain (ECD), wild type [human] / BMP10 growth factor (GF)-domain from Pro:BMP10 made in HEK EBNA cells [human] (parent)
chain 1: SQNQERLCAFKDPYQQDLGIGESRISHENGTILCSKGSTCYGLWEKSKGDINLVKQGCWSHIGDPQECHYEECVVTTTPPSIQNGTYRFCCCSTDLCNVNFTENFPPPDTTPLSPPHSFNRDET
chain 2: NAKGNYCKRTPLYIDFKEIGWDSWIIAPPGYEAYECRGVCNYPLAEHLTPTKHAIIQALVHLKNSQKASKACCVPTKLEPISILYLDKGVVTYKFKYEGMAVSECGCR

Assay [1] covers variants of B1. Briefly: ELISA (prodomain displacement). Conditions: with BMP10 growth factor (GF)-domain from Pro:BMP10 made in HEK EBNA cells [human]; BMPRII ECD at 125x excess over Pro:BMP10; lower reading = more prodomain displaced; parent: 0.42; read off a plot.
Assay [2] covers variants of B1. The assay can be described thus: native PAGE prodomain displacement (densitometry). Conditions: with BMP10 growth factor (GF)-domain from Pro:BMP10 made in HEK EBNA cells [human], lower ratio = more prodomain displaced, read off a plot.
The variants in assay [3] derive from B1. The assay can be described thus: SPR (Biacore). Conditions: with Recombinant human BMP10 growth factor (GF)-domain (R&D Systems) [human], BMP10 immobilised on a CM5 Biacore chip. (In general: In SPR one partner is held on a chip, and binding of the other changes the refractive index at the surface.)
The mark [4] stands for this setting: BMPRII ECD at 2-fold excess (2x) over Pro:BMP10, parent: 0.59.
The mark [5] stands for this setting: BMPRII ECD at 5-fold excess (5x) over Pro:BMP10, parent: 0.46.

With chain 1 G57E, the values for the screen value in assay [1], in assay [2] (setting [4]) and in assay [2] (setting [5]) were 1, 0.93 and 0.88, respectively.
As for chain 1 N100S, the Kd in assay [3] (parent: 1.19e+03 nM) turned out to be 1320 nM. In addition, in assay [3] (parent: 0.161), the koff came to 0.14 s⁻¹. For the same variant, the kon in assay [3] (parent: 1.35e+05) worked out at 106000 M⁻¹ s⁻¹. The results for the screen value in assay [1], in assay [2] (setting [4]) and in assay [2] (setting [5]) were 0.52, 0.64 and 0.39, respectively.
chain 1 Q66H: the values for the screen value in assay [1], in assay [2] (setting [4]) and in assay [2] (setting [5]) were 0.47, 0.77 and 0.55, respectively.
The corresponding values for chain 1 G42D are 0.95, 0.82 and 0.72.
The corresponding values for chain 1 Y41C are 1, 0.93 and 0.88.
Take chain 1 E72K: the figures for the screen value in assay [1], in assay [2] (setting [4]) and in assay [2] (setting [5]) were 0.42, 0.49 and 0.19, respectively.
chain 1 G63E: the screen value turned out to be 0.75 in assay [1], 0.99 in assay [2] (setting [4]) and 0.93 in assay [2] (setting [5]).
On the same counts, the results for chain 1 G63W are 0.67, 0.9 and 0.77.
For chain 1 G63A, the results for the screen value in assay [1], in assay [2] (setting [4]) and in assay [2] (setting [5]) were 0.57, 0.78 and 0.6, respectively.
On the same counts, the results for chain 1 S81P are 0.3, 0.7 and 0.66.

One may read the Kd as the free concentration of one partner at which half of the binding sites on the other are occupied at equilibrium, for simple one-to-one binding. The koff is the first-order rate constant of dissociation. What is called kon is the rate constant with which the complex forms.

Values taken from paper PMC9064986.
